In patent publication CN110903389A (FUZHOU MAIXIN BIOTECHNOLOGY DEV CO LTD, dated 2020) one finds Ka data, which are given here for 1 molecule.

In the assay the target is T1, 重组GFAP蛋白 (人GFAP第292位至第432位氨基酸片段 + 组氨酸标签, 大肠杆菌表达) (human, UniProt P14136 292-432).
T1 construct: also called 重组GFAP蛋白片段; 免疫原; not shown: Histidine tag from vector pET28a
Nature of the assay: Indirect ELISA on coated recombinant GFAP protein. The affinity constant was calculated from the antibody concentration at half of the plateau OD450.

T1 sequence (P14136 292-432): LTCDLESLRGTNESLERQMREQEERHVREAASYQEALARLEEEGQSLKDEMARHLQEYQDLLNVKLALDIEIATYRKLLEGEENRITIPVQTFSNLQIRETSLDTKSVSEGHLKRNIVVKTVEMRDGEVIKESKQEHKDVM

B1: 抗GFAP蛋白单克隆抗体(10G1G11H7) (antibody, V domains shown)
VH: EVQLQQSGAELVKPGASVKLSCTASGFNIKDTYMHWVKQRPEQGLEWIGRIDPANGKTKYDPKFQGKATITADTSSNTAYLQLSSLTSEDTAVYYCARRGIMTTVPFAYWGQGTLVTVSA
VL: DIVMTQAAPSVPVTPGESVSISCRSSKSLLHSNGNTYLYWFLQRPGQSPQLLIYRMSNLTSGVPDRFSGSGSGTAFTLRISRVEAEDVGVYYCMQHLEYPFTFGGGTKLEIK
Turning to B1, the Ka is 6.53e+09 M⁻¹.
